Measurements: patent US5693476
“And” between values parts separate entries of the source, which are not always exact repeats. Equal entries are not always repeated.

Tests used:
[1] = molecular target: GST-syntaxin 1A cytoplasmic domain fusion protein (Syn 1A11, amino acids 4-266), immobilized on glutathione agarose beads (Schistosoma japonicum; rat); experiment: 20S complex on GST-Syn 1A11 beads, ATP and MgCl2, Western blot densitometry
[2] = molecular target: GST (glutathione-S-transferase) alone, immobilized on glutathione agarose beads (Schistosoma japonicum) [GST: P08515]; experiment: GST pull-down on glutathione agarose beads, Western blot (anti-α-SNAP), densitometry, FIG. 3
[3] = molecular target: GST-SNAP-25, immobilized on glutathione agarose beads (Schistosoma japonicum; mouse); experiment: as above
[4] = molecular target: GST-VAMP (full cytoplasmic domain of VAMP), immobilized on glutathione agarose beads (Schistosoma japonicum; rat); experiment: as above
[5] = molecular target: GST-syntaxin 1A cytoplasmic domain fusion protein (Syn 1A11, amino acids 4-266), immobilized on glutathione agarose beads (Schistosoma japonicum; rat); experiment: as above
[6] = molecular target: GST-syntaxin 1A H3 domain construct Syn 1A16 (amino acids 191-266) (Schistosoma japonicum; rat); experiment: 20S complex assembly on GST-syntaxin beads with all four proteins together, ATP, 18° C. overnight MgCl2, Western blot densitometry, FIG. 6B
[7] = molecular target: GST-syntaxin 1A cytoplasmic domain fusion protein (Syn 1A11, amino acids 4-266), immobilized on glutathione agarose beads (Schistosoma japonicum; rat); experiment: as above
[8] = molecular target: GST-syntaxin 1A deletion mutant Syn 1A13 (amino acids 4-221) (Schistosoma japonicum; rat); experiment: as above
[9] = molecular target: GST-syntaxin 1A deletion mutant Syn 1A17 (amino acids 4-240) (Schistosoma japonicum; rat); experiment: as above
[10] = molecular target: GST-syntaxin 1A deletion mutant Syn 1A6 (amino acids 4-190) (Schistosoma japonicum; rat); experiment: as above
[11] = molecular target: GST-syntaxin 1A deletion mutant Syn 1A5 (amino acids 4-114) (Schistosoma japonicum; rat); experiment: GST-syntaxin deletion mutant on glutathione beads, soluble ligand, Western blot densitometry; FIG. 4C row 2 from top, row label only in the figure (assigned by Table 1 order and paragraph 328)
[12] = molecular target: GST-syntaxin 1A cytoplasmic domain fusion protein (Syn 1A11, amino acids 4-266), immobilized on glutathione agarose beads (Schistosoma japonicum; rat); experiment: 20S complex on GST-Syn 1A11 beads, ATP and Mg++, Western blot densitometry

Sequence of His-tagged α-SNAP (soluble NSF attachment protein), soluble recombinant (P81125 whole entry): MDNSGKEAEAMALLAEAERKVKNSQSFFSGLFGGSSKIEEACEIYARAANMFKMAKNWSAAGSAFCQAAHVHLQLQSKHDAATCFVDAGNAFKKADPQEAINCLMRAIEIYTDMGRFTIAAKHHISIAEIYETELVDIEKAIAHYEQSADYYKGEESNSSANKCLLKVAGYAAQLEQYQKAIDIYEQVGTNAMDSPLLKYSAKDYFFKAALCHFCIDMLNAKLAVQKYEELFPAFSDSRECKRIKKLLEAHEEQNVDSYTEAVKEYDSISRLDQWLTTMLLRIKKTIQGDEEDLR

percent dissociated from syntaxin following ATP hydrolysis by NSF [1] | densitometry pixel value [2] [pixel value] | densitometry pixel value [3] [pixel value] | densitometry pixel value [4] [pixel value] | densitometry pixel value [5] [pixel value] | densitometry pixel value [6] [pixel value] | densitometry pixel value [7] [pixel value] | densitometry pixel value [8] [pixel value] | densitometry pixel value [9] [pixel value] | densitometry pixel value [10] [pixel value] | densitometry pixel value [11] [pixel value] | percent remaining associated with the GST-syntaxin beads [12] [%] | Substance
70% and 90% | 0 | 33 | 8 | 1830 | 1540 | 331 | 0 | 793 | 0 | 0 |  | His-tagged α-SNAP (soluble NSF attachment protein), soluble recombinant (from UniProt P81125)
 |  |  |  |  | 484 | 75 | 1310 | 546 | 0 | 19 | 90 | SNAP-25 (synaptosomal-associated protein of 25 kDa), soluble recombinant
80% and 90% |  |  |  |  | 951 | 133 | 1560 | 903 | 0 | 0 |  | VAMP (vesicle-associated membrane protein; VAMP 2), soluble recombinant
